# Assay results from FireProtDB (doi:10.1038/nsb1296-1019).
# Conditions: Equus caballus, pH 2, Sodium phosphate 10 mM, KCl 1 M; for denaturant midpoint (higher = more stable) / unfolding free energy: 10 °C, Acid
# [1] = Thermal, CD, transition: 3, structure 1AKK
# Chain of Cytochrome c L95V, P00004 (P00004 whole entry L95V): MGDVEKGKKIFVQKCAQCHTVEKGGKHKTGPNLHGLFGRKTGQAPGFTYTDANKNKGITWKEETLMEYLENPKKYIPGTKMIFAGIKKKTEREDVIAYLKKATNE
# Chain of Cytochrome c wild type, P00004 (P00004 whole entry): as the sequence (P00004 whole entry L95V) above, with V95L counted along it
# Chain of Cytochrome c L95A, P00004 (P00004 whole entry L95A): as the sequence (P00004 whole entry L95V) above, with V95A counted along it
Substance,"denaturant midpoint (higher = more stable) (CD, structure 1AKK)","unfolding free energy (CD, structure 1AKK)","denaturant midpoint (higher = more stable) (Fluorescence, structure 1AKK)","unfolding free energy (Fluorescence, structure 1AKK)","ddG of mutation (higher = less stable) (83 °C, Thermal, CD, transition: 3, structure 1AKK)",Tm [1],"change of melting temperature, mutant - wild type (higher = more stable) [1]",unfolding enthalpy (van 't Hoff) [1],denaturant midpoint (higher = more stable) (CD),unfolding free energy (CD),denaturant midpoint (higher = more stable) (Fluorescence),unfolding free energy (Fluorescence),"Tm (Thermal, CD, transition: 3)","unfolding enthalpy (van 't Hoff) (Thermal, CD, transition: 3)"
"Cytochrome c L95A, P00004",0.83 M,0.1 kcal/mol,0.3 M,0.74 kcal/mol,,,,,,,,,,
"Cytochrome c L95V, P00004",0.1 M,2.59 kcal/mol,0.08 M,2.7 kcal/mol,1.2 kcal/mol,79 °C,-4 °C,104 kcal/mol,,,,,,
"Cytochrome c wild type, P00004",,,,,,,,,0.03 M,4.14 kcal/mol,0.03 M,3.54 kcal/mol,83 °C,107 kcal/mol
